Measurements taken from the supplement of paper PMC10567573.

B1: FAM46D (parent)
chain: FQEAMTHLQHKLICTRKPEEIRGG
B2: TTC32 (parent)
chain: YSAYIRRCACAASSDESPGSKCSP

Variants of: B1
Test: protein stability index of a GFP-peptide fusion (GPS, HEK-293T) (PSI 1-6); higher = more stable
Conditions: c terminus: a fixed tail appended
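Further: lentivirally expressed fusions sorted by FACS into six bins by GFP to DsRed ratio, PSI derived from sequencing read proportions per bin multiplied by bin number.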

Protein stability index, by site and new letter:
G24: S 2.9; H 2.26; F 2.3; T 2.96; I 1.91; K 3.34; C 2.52; A 2.26; Q 2.91; V 3.09; L 2.45; E 2.49; D 2.96; R 2.07; P 2.64; M 1.85; Y 2.59; W 1.68; N 2.51
P18: Y 2.14; M 2.24; H 2.33; G 2.48; V 2.54; T 2.85; R 2.09; K 1.82; D 2.7; C 1.3; I 2; A 2.72; W 2.35; F 2.61; S 2.43; E 3.41; Q 2.19; N 3.04; L 2.11
E20: R 2.19; N 2.64; C 2.3; F 2.38; V 2.38; Y 2.34; P 2.39; I 1.77; H 1.89; S 2.33; D 2.69; M 2.03; G 1.99; A 2.15; W 2.08; Q 2.33; T 2.5; L 2.05; K 3.26
I21: Y 2.21; P 3.36; H 3.4; W 2.07; L 2.34; S 3.74; M 2.9; E 2.98; A 3.27; D 3.26; T 3.56; V 2.43; F 2.62; N 3.87; K 3.72; G 2.69; R 3.93; Q 3.05; C 2.73
E19: M 1.58; Y 2.15; P 3.13; R 1.42; H 2.3; N 2.53; C 1.97; Q 2.23; I 1.98; A 2.79; V 2.01; G 1.83; L 2.26; D 2.55; S 2.76; K 2.67; T 2.28; F 2.09
G23: M 2.6; E 2.16; N 3.01; Q 2.34; L 2.66; A 2.76; W 2.48; I 2.6; S 2.71; K 3.19; P 2.87; F 2.02; Y 2.41; V 2.15; T 2.14; C 2.08; D 3.08; H 2.61; R 2.45
K17: W 2.03; F 2.03; S 2.75; V 2.64; A 2.58; E 3.03; R 2.02; G 2.77; C 1.91; T 2.65; N 2.9; L 1.66; M 2.87; H 2.38; Y 1.85; D 3.46; P 2.52; I 2.68; Q 2.33
R16: S 2.75; W 1.67; V 2.77; T 2.56; Y 3.21
R22: L 2.7; A 2.85; Q 2.94; C 2.41; F 2.34; Y 1.91; G 2.85; M 2.39; P 2.51; K 3.07; D 3.3; V 3.04; E 3.29; I 2.41; H 3.14; T 2.96; S 2.66; N 2.93; W 1.41

Variants of: B2
Test: as above
Conditions: c terminus: a fixed tail appended

Protein stability index: each site, then its substitutions
Y4: R 2.67; C 2.4; N 2.85; E 3.34; K 2.5; S 2.29; M 2.1; G 3.35; I 2.08; L 2.45; D 3.36; V 3.07; P 2.45; T 2.24; W 3.57; F 1.92; Q 2.65; H 2.12; A 2.01
R6: C 2.26; N 2.58; Q 2; D 3.62; T 2.08; W 3.52; Y 2.25; V 1.74; K 1.97; H 1.82; M 1.33; E 2.9; L 2.07; F 2.64; P 2.66; G 2.53; A 2.07; S 2.41; I 2.43
S2: V 2.52; W 1.91; M 1.91; N 2.35; R 1.82; Q 2.02; Y 1.92; A 2.38; C 2.06; F 2.16; D 2.6; L 2; H 4.15; K 1.92; T 2.1; G 2.37; I 1.58; E 2.7; P 2.59
A9: V 2.17; E 3.19; P 2.16; D 2.58; L 2.26; I 2.38; N 2.37; M 1.96; Y 1.55; K 2.38; Q 2.25; W 1.45; S 1.98; H 1.92; C 1.59; G 1.82; T 2.14; F 1.76; R 2.66
Y1: L 2.61; H 2.65; C 2.04; P 2.88; R 2.64; M 2.45; S 2.54; D 3.44; G 2.48; F 2.27; I 1.72; K 2.75; Q 2.56; A 2.62; T 2.52; N 2.96; V 2.17; E 3.29; W 2.45
I5: Q 2.09; L 2.12; C 2.15; A 1.86; M 2.29; Y 2.45; F 2.51; V 1.85; N 3.13; T 2.61; R 2.27; D 3.16; P 2.24; K 2.65; E 3.46; H 2.82; S 2.52; W 3.7; G 2.09
R7: W 2.53; Y 2.06; C 1.55; E 2.81; M 2.14; T 2.08; V 1.64; P 3.01; K 2.23; L 2.16; A 2.17; S 2.42; N 2.78; G 2.7; I 1.42; H 1.9; F 2.59; Q 2.48; D 3.92
C8: A 3.5; F 2; P 3.49; L 2.38; E 3.93; G 2.87; Y 2.07; T 3.06; N 3.41; S 3.03; Q 3.23; R 2.99; W 2.48; I 2.21; V 2.67; H 2.91; D 3.89; K 3.48; M 2.05
A3: N 1.54; D 2.62; T 2.16; Q 2.91; I 1.51; M 2.15; C 2.02; L 2.18; W 2.19; P 1.69; H 2.15; R 1.89; F 1.86; K 2.44; E 1.92; G 2; Y 1.75; V 2.05; S 2.43
C10: A 3.13; G 3.46; E 3.78; F 2.14; D 3.2; H 2.92; I 2.38
